Like-named read-outs stand apart in the source and are kept apart here.

Series [1] can be described thus: Repeat-dose tolerability in mice. Particulars: 50 mg/kg twice per week for 14 weeks.
In series [2] the test system is CCl4-induced liver fibrosis. The experiment in a line: CCl4-induced liver fibrosis. Particulars: 30 mg/kg i.p. twice a week. It counts as in vivo, mouse. As to the method: Male BALB/c mice (10-12 weeks old) were obtained from Aragen Biosciences (Morgan Hill, Calif.). Mice were distributed into 4 groups. Mice in 3 of the groups were injected with CCl4 (Sigma-Aldrich, St. Louis, Mo.), and mice in the remaining group were injected with saline.
CCl4 was intraperitoneally administered to mice at 1 ml/kg body weight (CCl4: mineral oil in 1:1 (v/v) ratio) twice weekly for 4 weeks. In the control group, 0.9% saline (saline:mineral oil in 1:1 (v/v) ratio) was administered intraperitoneally using the same dosing regimen.
In the CCl4-treated groups, the first group was treated with AB0023 (diluted in PBS/0.01% Tween-20), the second group was treated with pep4 M64 (diluted in […]) and the third group was treated with vehicle (PBST). Antibodies and vehicle were injected intraperioneally at a dose of 30 mg/kg twice a week. The treatment started a day prior to the first administration of CCl4 and continued until the end of the study. The study was terminated after 4 weeks of CCl4 and antibody administration. Mice were euthanized and sacrificed humanely and the livers were harvested 96 hours after completion of dosing. The livers were snap-frozen for histological and immunohistochemical analyses.
Ten fields (or areas or lobes) for each treatment regimen were randomly selected and stained with Sirius Red. The area used for scoring was 1.7 mm×1.3 mm and contained at least 8 portal triads.
Triads and areas of complete bridging fibrosis were counted. […] The percentages from 10 fields (per treatment) were averaged and standard error was calculated.
For each treatment, five fields were selected and stained with an anti-alpha-smooth muscle actin (aSMA) antibody. aSMA-positive signal in the porto-portal region (threshold area %) was analyzed by Metamorph (Molecular Devices, Downingtown, Pa.). aSMA-positive signal in sections from animals undergoing AB0023-treatment was compared to signal obtained in sections from animals that had been treated with vehicle (PBS).

Series [3] relates to Matrigel plug containing bFGF. The experiment in a line: In vivo Matrigel plug angiogenesis assay. Particulars: 30 mg/kg i.p. twice weekly. Also noted: species or system mouse. As to the method: Athymic female Ncr:Nu/Nu mice were injected subcutaneously in the flank with 0.5 ml high-concentration Matrigel (BD Biosciences, San Jose, Calif.) supplemented with 100 ng/ml FGF and 60 U heparin. Matrigel injections were conducted one week after initiation of treatments with antibodies). Antibodies (or PBST, as a control) were administered by intraperitoneal injection of 30 mg/kg twice weekly. Matrigel plugs were harvested 10 days after implantation by excising the plug together with attached skin, and were fixed in 10% neutral buffered formalin and embedded in paraffin. 5 um sections were cut and stained with hematoxylin and eosin, anti-CD31 or anti-CD34 antibodies to assess degree of vessel formation.

For a further series, the system named is MCF7 cells. Put plainly: Induction of EMT-like phenotype by LOXL2-containing conditioned media (rhodamine-phalloidin staining). Conditions: MDA-MB231 or Hs-578t conditioned media; BAPN up to 2 mM. In kind it is cell-based. As to the method:
Cells were seeded at 80% confluency, in an 8-chambered slide, 24 hours prior to the day of staining. After 24 hours, media was aspirated and the chambers were washed with PBS. Cells were then fixed with 4% Parafomaldehyde (PFA) for 20 minutes at room temperature and then permeabilized with 0.5% Saponin (JT Baker, Phillipsburg, N.J.) for 5 minutes at room temperature. Cells were then stained for 15 minutes at room temperature with a 1:100 dilution of rhodamine phalloidin (Invitrogen, Carlsbad, Calif.). Slides were mounted with Vectashield (Vector Laboratories, Burlingame, Calif.).
MCF7 or SW620 cells were seeded at 50,000 cells per well of an 8-chambered culture slide in HGDMEM (high-glucose Dulbecco's modified Eagle's medium containing 4.5 g/l glucose)+10% FBS, 2 mM L-glutamine, 24 hours prior to being exposed to conditioned medium (CM). 500 uls of fresh conditioned medium from MDA MB 231 cells was added to the chambers containing MCF7 cells. The cells were incubated with the CM for 48-96 hours. Conditioned medium from MCF7 or SW620 cells was used as a negative control. After 48-96 hours incubation with CM, the cells were stained with rhodamine-phalloidin as described above.

Series [4] deals with MDA-MB-435 established primary tumors. Put plainly: MDA-MB-435 established primary tumor xenograft model. It counts as in vivo, mouse. Conditions: independent study; AB0023 5 mg/kg twice per week, BAPN 100 mg/kg daily.
Series [5] has as its system human umbilical vein endothelial cells (HUVEC). Put plainly: In vitro HUVEC tube formation assay. In kind it is cell-based. Particulars: for IC50: CD31 staining, day 11. As to the method: Human umbilical vein endothelial cells (HUVECs) were plated on a feeder layer of fibroblasts and cultured in 24-well plates in Lonza EBM-2 medium (a basal medium developed for normal human endothelial cells in a low-serum environment) supplemented with hEGF, Hydrocortisone, GA-1000 (Gentamicin, Amphotericin-B), FBS (Fetal Bovine Serum) 10 ml (2% final), VEGF, hFGF-B, R3-IGF-1, Ascorbic Acid and heparin. […] At this point (day 1), 0.5 ml of fresh endothelial cell growth medium containing no additions (control), anti-LOXL2 antibody AB0023, or suramin was added to the wells. The plate was then cultured at 37° C. and 5% CO2. On days 4, 7 and 9 the medium was removed from all wells and carefully replaced with 0.5 ml of fresh medium containing the additions listed above. On day 11, the plates were fixed and tubules were assayed for CD31 expression as follows. Wells were washed with 1 ml PBS and fixed with 1 ml ice cold 70% ethanol for 30 minutes at room temperature. Cells were then incubated, for 60 minutes at 37° C., with 0.5 ml mouse anti-human CD31 antibody diluted 1:400 in PBS containing 1% BSA. Wells were then washed three times with 1 ml PBS, followed by incubation for 60 minutes at 37° C. with 0.5 ml alkaline phosphatase-conjugated goat anti-mouse IgG secondary antibody diluted 1:500 in PBS containing 1% BSA. Wells were washed a further three times with 1 ml PBS prior to incubation for 10 minutes at 37° C. with 0.5 ml freshly prepared and filtered BCIP/NBT substrate. Wells were then carefully washed three times with 1 ml distilled water and left to air dry overnight.
Digital images of each well were taken using a Nikon Coolpix camera on a Leica inverted microscope at 10× magnification. Four random fields per well were imaged, producing 96 images in total. Images were then converted to BMP files and imported into an image analysis package to measure number of vessel branches, number of vessels and total vessel length. […]

B1: AB0023: mouse anti-human LOXL2 monoclonal antibody; heavy chain variable region SEQ ID NO:1, light chain variable region SEQ ID NO:2 (antibody, listed as Mus musculus, V domains shown)
VH: MEWSRVFIFLLSVTAGVHSQVQLQQSGAELVRPGTSVKVSCKASGYAFTYYLIEWVKQRPGQGLEWIGVINPGSGGTNYNEKFKGKATLTADKSSSTAYMQLSSLTSDDSAVYFCARNWMNFDYWGQGTTLTVSS
VL: MRCLAEFLGLLVLWIPGAIGDIVMTQAAPSVSVTPGESVSISCRSSKSLLHSNGNTYLYWFLQRPGQSPQFLIYRMSNLASGVPDRFSGSGSGTAFTLRISRVEAEDVGVYYCMQHLEYPYTFGGGTKLEIK
modifications: Heavy chain; Light chain
Take B1: the tolerability result in series [1] is on record as “well-tolerated”. In addition, in series [2], the “aSMA positive myofibroblasts in porto-portal septa” value is “substantial reduction”. The “mortality resulting from injection with CCl4 (survival)” value in series [2] (AB0023 p=0.0029 log rank) is given as “prevented”. Also, the “bridging fibrosis in livers” value in series [2] (Sirius Red, AB0023 p=0.002, M64 p=0.127) is “significantly inhibited”. For the same molecule, the “CD31 positive cells in the matrigel plugs” value in series [3] (p=0.0168) is “significant decrease”. Further, in series [3] (plugs at day 10, p=0.0319), the “reduction in average number of vessels in plugs versus vehicle” value is recorded as ~7 fold. Further, in the series with MCF7 cells, the “remodeling of the actin cytoskeleton induced by LOXL2-containing conditioned media” value was “abrogated”. In series [4], the “reduction in collagen production, Sirius red staining” value was determined as 47%; the “reduction in fibroblast activation, αSMA positivity” value was > 90%; the “reduction in tumor vasculature, CD31 signal” value worked out at 52%; the “reduction in tumor volume after 46 days” value amounted to 38.4%. For the same molecule, the “inhibition of vessel branching, vessel length and total number of vessels” value in series [5] (50 ug/ml) is reported as “complete inhibition”. For the same molecule, the IC50 in series [5] (read-out: IC50 for inhibition of number of vessels (FIG. 4 Panel H)) was 19.9 nM. In series [5] (read-out: IC50 for inhibition of vessel branching (mean number of branching points, FIG. 4 Panel G)), the IC50 stood at 22.2 nM.

The values are drawn from patent US20110076272A1, “THERAPEUTIC METHODS AND COMPOSITIONS” (priority 2009, published 2011).
